Here are results for 19 sequences from a protein production outcome set (Wang et al. 2014).

The series in a line: label from the status in PepcDB records.
Turning to “MEDEHSRQAYVDQLGLLEEGADEVFEEILAAATSYFQTPIALISILDHQRQWFRASIGLDIRQTPRRDSFCAYAILGKGVFEVADATLDPRFRDNPYVQGEPRIRFYAGAPLATAEGLNLGSLCVIDREPRGPLAERDVAMLEHFARLVMARIHTLRSTNYIDEPTGLYNRLRLQEDVSLRLQRDGALTVIAADLLPLALLNTIIRTLGYPFSNDLMLEARDRIRAELPDFTLYKISPTRFGLLLPRQQQEETESVCLRLLRAFESPVVCRGIPIKANVGLGVLPLADDTLDGDQDWLRLVVSAADDARDRGVGWARYNPPLDQAQQRAFTLLTSLSQAIGTEEGFHLVYQPKIDLPTGRCTGVEALLRWRHPQLGFVSPAEFVPLAEKTALMRPLSDWVLRHAMAQLAQWNARNIPLRLAINVSASDMEDSSFLEEAVRLAKTYDIDLSALELEFTESVLIRDASAVGSVLLRARELGMGIAVDDFGTGYSNWTYLRDLPITAIKLDQSFTRDLAGSPKAQSVTQAVIGLASQLGYRVVAEGIETHDTFHLLQAWGCHEGQGYLIAQPMLPEQLEDWLRRLEHHHHHH”, the protein production result is reported as “failed”. Next, “MEDIFSKRKTLRTIKADTSDYFIPLFHTLAVFLSTKETIITKRFLEHIMKNLIALTLLLGGSTLLCAQKPAKTPATYKPVKSEMYRKGWIDFNKNGVKDVYEDPSAPLEARIENLLQQMTLDEKTCQMVTLYGYKRVLKDDLPTPEWKELLWKDGIGAIDEHLNGFQQWGLPPSDNAYVWPASRHAWALNEVQRFFVEDTRLGIPVDFTNEGIRGVESYRATNFPTQLGLGHTWNRELIRQVGLITGREARMLGYTNVYAPILDVGRDQRWGRYEEVYGESPYLVAELGIEMVRGLQHNHQVAATGKHFAAYSNNKGAREGMARVDPQMSPREVENIHIYPFKRVIREAGMLGVMSSYNDYDGIPVQGSYYWLTTRLRGEMGFRGYVVSDSDAVEYLYTKHGTAKDMKEAVRQSVEAGLNVRCTFRSPDSFVLPLRELVKEGGLSEEVINDRVRDILRVKFLIGLFDAPYQTDLADADREVEKEENEAIALQASRESIVLLKNAGELLPLDINSTKKIAVCGPNANEEGYALTHYGPLAVEVTTVLEGIQEKTKGKAEVLYTKGCDLVDAHWPESEIIDYPLTDDEQAEIDKAVENARQADVAIVVLGGGQRTCGENKSRTSLDLPGRQLQLLQAIQATGKPVVLILINGRPLSINWADKFVPAILEAWYPGSKGGTALADILFGDYNPGGKLTVTFPKTVGQIPFNFPCKPSSQIDGGKNPGPTGNMSRINGALYPFGYGLSYTTFEYSDLDITPRVITPNESATVRLKVTNTGKRAGDEVVQLYIRDVLSSITTYEKNLAGFQRIHLEPGEAQELSFTIDRKHLELLDADMKWVVEPGDFVLMAGASSEDIRLNGTLTVEDYQTRAKAIEAQKPAKRVSASTNPEDAENVLDEKINTAWQGNKGDYITFALKNGAKVDKVAIAFTRDNNLPATFEIQLSGGGGQFLTVYSGTVSEYGKLISYPFKGTTASDLRIVLNDDRVSIAEVKF”: “failed”. In the case of “MEDKAVSPIIATILLIAITVALAATFYTEVTPYFTEAQYYTPQAVTDVMNVSNGSSFSYDIYIQFFPANLTASQVEISLHVGSSYEYINLKMLSPFGKTTLNNGSITISQYPSAGYFTQGLIFVINSTLPLHSIIFVDLKTSSSINTVSI”, the protein production entry is on record as “failed”. With “MEDKKEYAKYAGFRIRFAAMLIDVVILVILFSIPVGFIYGQEYWQGEKLIYGFWDVLINYVIPAILTIFFWIKFLGTPGKMILKLRVVDEHTGGTLSIGKAIGRYFAYILSILPVFLGFFWIGFSDKKQGWHDILAGTVVIRSESKGPFEFRS”, the protein production result is given as “failed”. Turning to “MEDKRISEKESLELIACMIRETQDNTARYAAYPLLIWGYTTVAISLVVWYFYLQTGVWQINFLWFALPVIAGPLTIFFNRKDKNKGAKNYIDRVTGQIWAVFGVVGFCLSCMAFVVRIDILFVISLLMGMGATLTGLVCKYKPLSIAGMTGIALSFSMLFIHGSGVYLVFAAIFIVMMIVPGHIMNKQMKKQCLKN”, the protein production entry is “failed”. For “MEDLLVVGQIINTHGLRGEMKVMPLTEDMRRFDYLEYVILKGKKVKVEGVKYFKDKVILKLEGINSIEEAEKLKRTYLEIEREDAIELEEDEYFIVDLVGCTVVDTEGFEYGKIKDVIQTPSNDVYWVQGKKEVLVPVLKDIVLDINMDEKLITIRPSGEWQYEDLEHHHHHH”, the protein production result is “failed”. For the sequence “MEDSSGQSLLFQFILLLILTLLSAFFSASEMALVSLNRSRVEQKAEEGDKKFIRLLKVLENPNNFLSTIQVGITFIGLLQGASLSASLGAVIATWFGNVAWAKTAGSVVSLVVLTYISIVFGELYPKRIAMNLKENLAIYSAPVIIVTGKIVSPFVWILSASTNLLSRLTPMTFDDADEPMTRDEIEYMLTKSEDTLEAEEIEMLQGIFSLDELMAREVMVPRTDAFMIDIEDDTQENIQAILKQSFSRIPVYEDNKDKIIGVIHTKKLLKAAYELGFENVNLRRIMNEPLFVPETIFVDDLLAAFRNTNNQMAILLDEYGGVAGLVTFEDLLEEIVGEIDDETDKASVEVREIGENTYIVEGSMTLNDFNEHFDTELESDDVDTIAGYYLTGVGAIPTQEVKEHYEVINKDKRLEFINDKVKDGRVTKLKVIITAAPEEAGE”, the protein production result was “failed”. As for “MEDTTFTKVFVGGLAWETHKVSLRNYFEQFGDIVEAVVITDKSSGRSKGYGFVTFCDPEAAQKACVDPAPVIDGRRANCNLAAFGVQRSKPSSPIHGTFRFLSFDTLLLKTLHQEYM”, the entry is “failed”; as for “MEDYGFEYSDEEQEEQDVDIENQYYNSKGMVETEPEEALSGFAEVVQMEPEKADWGFKALKQTVKIYYRLGKYKEMMEAYTEMLTYIKSAVTRNYSEKCINNIMDFVSGSASQNTGLLQEFYQTTLKALEEAKNERLWFKTNLKLCNIWFDIGEYRRMTKILKELHKSCQKEDGTDDQKKGSQLLEVYAIEIQIYTETKDNKKLKQLYHKALAIKSAIPHPRIMGIIRECGGKMHMAERQWEEAATDFFEAFKNYDEAGNQRRIQCLKYLVLANMLMESEVNPFDGQEAKPYKNDPEILAMTNLIAAYQRNEIIEFERILKSNRRTIMDDPFIRNYMEDLLKKVRTQVLLKLIKPYTKIGIPFISKELNVPETDVTELLVSLILDSRIDGHIDEMNRYLLRGDSGNGRKLHKAVDKWNSQLKSLSSNITSRVC”, “failed”; as for “MEEFQFTKRVHNILKIAAEEGESNIIQPVHLFIGMCKEGTGVCSELYMYLFRNVGTDFLEKLSLRKQDDLTDQEYEKIGQYKVSYKVLEILQIAKKRMERFQQVLMNEGHVIYALFRADTFIENPQIQKEILRIVEEPRDLAVDLKCFVPAYTHLTCHVRKANSSDFGKLVSFVSEEFGERWLHSIEYGFRTYKENVPIYIAEQKEVIVGFACYDVVRGKKGLFGPMGTAKQNRVKSVGKQLLHCSLHSMKQDGYEYAIIGQAGPVEFYERCCNARLIPIMDY”, “failed”.

Take “MEEKRRRARVQGAWAAPVKSQAIAQPATTAKSHLHQKPGQTWKNKEHHLSDREFVFKEPQQVVRRAPEPRVIDREGVYEISLSPTGVSRVCLYPGFVDVKEADWILEQLCQDVPWKQRTGIREDITYQQPRLTAWYGELPYTYSRITMEPNPHWHPVLRTLKNRIEENTGHTFNSLLCNLYRNEKDSVDWHSDDEPSLGRCPIIASLSFGATRTFEMRKKPPPEENGEYTYVERVKIPLDHGTLLIMEGATQADWQHRVPKEYHSREPRVNLTFRTVYPDPRGAPW”: the protein production result was “failed”. “MEELQEPLRGQLRLCFTQAARTSLLLLRLNDAALRALQECQRQQVRPVIAFQGHRGYLRLPGPGWSCLFSFIVSQCCQEGAGGSLDLVCQRFLRSGPNSLHCLGSLRERLIIWAAMDSIPAPSSVQGHNLTEDARHPESWQNTGGYSEGDAVSQPQMALEEVSVSDPLASNQGQSLPGSSREHMAQWEVRSQTHVPNREPVQALPSSASRKRLDKKRSVPVATVELEEKRFRTLPLVPSPLQGLTNQDLQEGEDWEQEDEDMDPRLEHSSSVQEDSESPSPEDIPDYLLQYRAIHSAEQQHAYEQDFETDYAEYRILHARVGTASQRFIELGAEIKRVRRGTPEYKVLEDKIIQEYKKFRKQYPSYREEKRRCEYLHQKLSHIKGLILEFEEKNRGS”: the protein production result is listed as “failed”.

As for “MEELSAAEPGPEPGPEPESAPESESEPGPAGAGDAPGDGVIVTRALTKRYRGGQLAVDGLDLTVPAGSVFGFLGPNGSGKTTTIRMLMGLIEPTSGTARVLGRPMPRSARTVLPHIGALIEGPALYGFLSGRDNLLRYDAADPTADPRTRRTRVAATLDRVGLTAAAGKKAKAYSLGMKQRLGLAAALLQPRRLLVLDEPTNGLDPQGMREIRSLVRELASDGTTVFLSSHLLDEIEQVCTHAAVMAQGRLITQGAVADLAAGARGRLVVTTPDVTDAARVLKEQGVADIVVAEDRVTGEPPDGELAELNAALVTAAVRVRGFGVERASLEDAFVALTGEGFDVAGLEHHHHHH”, the protein production entry is “failed”. As to “MEELTQILKNNRTDDLTWFCSLSESELDLLISLKKLAIQRAKISGHQELADKFDLKLLRSLGLVLMEHARKRVQNDTSLAPSVVHQLRLLDNCNLLKTHVDDAVDIEEILTQICDNKSKKKARKRRR”, the protein production entry is given as “failed”. For the sequence “MEERMEMISERPKESMYSWNKTAEKSDFEAVEALMSMSCSWKSDFKKYVENRPVTPVSDLSEEENLLPGTPDFHTIPAFCLTPPYSPSDFEPSQVSNLMAPAPSTVHFKSLSDTAKPHIAAPFKEEEKSPVSAPKLPKAQATSVIRHTADAQLCNHQTCPMKAASILNYQNNSFRRRTHLNVEAARKNIPCAAVSPNRSKCERNTVADVDEKASAALYDFSVPSSETVICRSQPAPVSPQQKSVLVSPPAVSAGGVPPMPVICQMVPLPANNPVVTTVVPSTPPSQPPAVCPPVVFMGTQVPKGAVMFVVPQPVVQSSKPPVVSPNGTRLSPIAPAPGFSPSAAKVTPQIDSSRIRSHICSHPGCGKTYFKSSHLKAHTRTHTGEKPFSCSWKGCERRFARSDELSRHRRTHTGEKKFACPMCDRRFMRSDHLTKHARRHLSAKKLPNWQMEVSKLNDIALPPTPAPTQ”, the protein production entry is recorded as “not failed”.

As to “MEESLKVGIAGLGTVGSSVVRILREKANSLTCQCGRSIKVVAVSARDKSRNRGIDLSDVKWFDSPVEMASSDEIDVFVELIGGESDVVYAAVKKALETGHHVVTANKALLAQHGGRLAVSAEKKGVFLHFEAAVAGGIPIIKVMRESLVSNHISRIYGILNGTCNYILTRMFTEGLSFKECLEDAQRLGYAEVDPTFDIGGNDTAHKLALLTSLAFGTAVSLDDIYVEGISNISQIDIRAADELGYRIKLLGVALKTETGIEQRVHPTMVPTSSMIAQIHGVTNALSIQSDLLGELLLSGPGAGGTATASAVIGDLADIAKARPGFQYAPVLGRPALGLAPHKKARISHHAGGYFIRLNVHDRAGVFAAVAKHMAGNHISLESIVQRSFVESQSVKTIILITHETTEVNVQQALAAIEKDGHLVAKSQFIRIEPMVLEHHHHHH”, the protein production result was “failed”.

For “MEETRPIDGLTDEDIREILTRYKKIALVGASPKPERDANIVMKYLLEHGYDVYPVNPKYEEVLGRKCYPSVLDIPDKIEVVDLFVKPKLTMEYVEQAIKKGAKVVWFQYNTYNREASKKADEAGLIIVANRCMMREHERLLGEK”, the protein production entry is on record as “not failed”. With “MEEVLPNVYLIDTLKYVEPGVISAYAVVHERAAIIDPGTAKGAEIILDEIDRSWNVEYICPTHIHIDHGGGAARLAKALDAKIIVHPRGVKHVVNPEKLWEASKAVLGEVAEIYGKPESIDESKVIAVEDEQEFDLGGERLKVFHAPGHAPHMLVYYLTNSKVLFPADAVGMCFGGVVFPLTPPPFDADAALKTLKRLKGLKVDYVAFTHYGVVEGDWPIAKSYEKVKSWLEIAKEVANANGTVEEFVGRLRKEDEDVEKLFNVLGSKPVALSFIYTSATGMLDAARRMIE”, the protein production result was “failed”.

“MEFLGSLLTFLIDIVGSFGYFGILLIVGLEYACFPLPSEVVLTFFGLSASQGEFSLIGVIIFSIIGGLLGSLICYAIGYYGGVPLQEWLGRKFPSSQKSMLALNKWFKKYGKPAVLLARIVPLTRTYVSLLAGAEKFSLKYFILYSSLGISIWNIFLVSLGYFIGDNLPLINSIMEKYTFVTLAILIIAVIIFIYLKFFKKEKNTSK”: the protein production result is given as “failed”.
